Measurements: doi:10.1101/2020.01.13.905216 (bioRxiv, 2020)

Target: the molecule itself
Experiment: cryo-EM structure

B1: Thermophilic Factor 55 β subunit (TF55β) chaperonin complex from Sulfolobus solfataricus (natural protein, S. solfataricus, UniProt Q9V2T8 1-554, looked up)
chain: MATATVATTPEGIPVIILKEGSSRTYGKEALRANIAAVKAIEEALKSTYGPRGMDKMLVDSLGDITITNDGATILDKMDLQHPTGKLLVQIAKGQDEETADGTKTAVILAGELAKKAEDLLYKEIHPTIIVSGYKKAEEIALKTIQEIAQPVTINDTDVLRKVALTSLGSKAVAGAREYLADLVVKAVAQVAELRGDKWYVDLDNVQIVKKHGGSVNDTQLVYGIVVDKEVVHPGMPKRIENAKIALLDASLEVEKPELDAEIRINDPTQMHKFLEEEENILKEKVDKIAATGANVVICQKGIDEVAQHYLAKKGILAVRRAKKSDLEKLARATGGRVISNIDELTSQDLGYAALVEERKVGEDKMVFVEGAKNPKSVSILIRGGLERVVDETERALRDALGTVADVIRDGRAVAGGGAVEIEIAKRLRKYAPQVGGKEQLAIEAYANAIEGLIMILAENAGLDPIDKLMQLRSLHENETNKWYGLNLFTGNPEDMWKLGVIEPALVKMNAVKAATEAVTLVLRIDDIVAAGKKSGSEPSGKKEKDKEEKSSED
- stoichiometry N: 18
